Experimental findings from patent publication US20230074735 are described below.

The series addresses Taq DNA polymerase (Thermus aquaticus) (UniProt P19821). Description: inhibition. The conditions noted are these: contains RNA cleavage site; about half amplicon yield; activity increased to some degree with 10 uM Pb2+; mechanism unclear, possibly stem recognition by polymerase.

Taq DNA polymerase (Thermus aquaticus), sequence (P19821 whole entry): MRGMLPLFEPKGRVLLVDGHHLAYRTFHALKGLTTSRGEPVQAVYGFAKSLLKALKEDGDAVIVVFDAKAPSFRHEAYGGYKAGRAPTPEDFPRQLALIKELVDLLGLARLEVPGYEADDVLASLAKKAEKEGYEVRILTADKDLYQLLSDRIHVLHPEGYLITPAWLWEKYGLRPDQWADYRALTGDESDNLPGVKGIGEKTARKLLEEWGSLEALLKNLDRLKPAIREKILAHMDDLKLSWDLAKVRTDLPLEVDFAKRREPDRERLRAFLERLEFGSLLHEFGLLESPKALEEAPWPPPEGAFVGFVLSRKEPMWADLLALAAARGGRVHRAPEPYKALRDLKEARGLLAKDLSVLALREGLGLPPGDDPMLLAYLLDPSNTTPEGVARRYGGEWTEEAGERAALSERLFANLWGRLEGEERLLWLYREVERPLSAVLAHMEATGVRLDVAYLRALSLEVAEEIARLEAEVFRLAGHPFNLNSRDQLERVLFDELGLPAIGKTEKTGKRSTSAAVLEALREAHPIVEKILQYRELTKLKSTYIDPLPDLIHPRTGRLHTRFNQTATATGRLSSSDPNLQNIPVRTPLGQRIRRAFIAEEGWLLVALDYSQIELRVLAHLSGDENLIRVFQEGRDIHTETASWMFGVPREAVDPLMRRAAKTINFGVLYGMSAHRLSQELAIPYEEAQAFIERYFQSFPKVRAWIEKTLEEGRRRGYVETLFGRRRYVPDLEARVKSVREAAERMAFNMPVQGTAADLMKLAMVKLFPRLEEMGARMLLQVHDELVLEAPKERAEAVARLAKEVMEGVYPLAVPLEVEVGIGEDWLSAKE

GR5 DNAzyme (71 nt) displayed an activity (% amplicon vs polymerase only) of 50.
